Reference: US20210371505A1

Molecular target: Hemagglutinin of A/Wisconsin/67/2005 (H3N2) overexpressed on 3T3 cells (Influenza A virus A/Wisconsin/67/2005 (H3N2))
Experiment: cell-based or functional assay

B1: H1H14612N2 (antibody, V domains shown)
VH: EVQLVESGGGLVKPGGSLRLSCAASGFSFSGFSMNWVRQAPGKGLEWVSSISTSGNYMYYADSVKGRFTISRDNAKKSFSLQMNSLRAEDSAIYYCARGGGYNWNLFDYWGQGSLVTVSS
VL: EIVLTQSPGTLSLSPGERATLSCRASQSLNSNYLAWYQQKPGQAPRLLIYGASSRATGIPDRFSGSGSGADFTLTISRLESEDFAVYYCQQYGNSPLTFGGGTKVEIK
EC50, ADCC with human donor PBMCs (CytoTox-Glo): 0.176 nM | EC50, FcγRIIIA activation in the ADCC-Glo reporter bioassay (Promega): 0.688 nM
